According to paper PMC3911823 (The FEBS journal, 2011):
Numbering of substitutions follows the chain as printed. In names and notes the source's numbering stands. Read-outs that look alike come from different tables or passages of the source.

Tests used:
Assay type in all cases: biochemical, rabbit (Oryctolagus cuniculus)
[1] = substrate: CCOc1ccc2c(C(F)(F)F)cc(=O)oc2c1; details: other: 2B4 E474Q; Michaelis-Menten fit; 37.0 °C
[2] = substrate: COc1ccc2c(C(F)(F)F)cc(=O)oc2c1; details: other: 2B4 E474Q; Michaelis-Menten fit; 37.0 °C
[3] = substrate: CCOc1ccc2c(C(F)(F)F)cc(=O)oc2c1; details: other: 2B4 WT; substrate O-dealkylation, Michaelis-Menten fit; 37.0 °C
[4] = substrate: COc1ccc2c(C(F)(F)F)cc(=O)oc2c1; details: other: 2B4 WT; substrate O-dealkylation, Michaelis-Menten fit; 37.0 °C
[5] = substrate: CCOc1ccc2c(C(F)(F)F)cc(=O)oc2c1; details: other: 2B4 H172A; Michaelis-Menten fit; 37.0 °C
[6] = substrate: COc1ccc2c(C(F)(F)F)cc(=O)oc2c1; details: other: 2B4 H172A; Michaelis-Menten fit; 37.0 °C
[7] = substrate: CCOc1ccc2c(C(F)(F)F)cc(=O)oc2c1; details: other: 2B4 L437A; Michaelis-Menten fit; 37.0 °C
[8] = substrate: COc1ccc2c(C(F)(F)F)cc(=O)oc2c1; details: other: 2B4 L437A; Michaelis-Menten fit; 37.0 °C
[9] = substrate: CCOc1ccc2c(C(F)(F)F)cc(=O)oc2c1; details: other: 2B4 H172Q; Michaelis-Menten fit; 37.0 °C
[10] = substrate: COc1ccc2c(C(F)(F)F)cc(=O)oc2c1; details: other: 2B4 H172Q; Michaelis-Menten fit; 37.0 °C
[11] = substrate: CCOc1ccc2c(C(F)(F)F)cc(=O)oc2c1; details: other: 2B4 E474D; Michaelis-Menten fit; 37.0 °C
[12] = substrate: COc1ccc2c(C(F)(F)F)cc(=O)oc2c1; details: other: 2B4 E474D; Michaelis-Menten fit; 37.0 °C

B1: P450 2B4 E474Q (Oryctolagus cuniculus; E474Q) (protein)
chain: MAKKTSSKGKLPPGPSPLPVLGNLLQMDRKGLLRSFLRLREKYGDVFTVYLGSRPVVVLCGTDAIREALVDQAEAFSGRGKIAVVDPIFQGYGVIFANGERWRALRRFSLATMRDFGMGKRSVEERIQEEARCLVEELRKSKGALLDNTLLFHSITSNIICSIVFGKRFDYKDPVFLRLLDLFFQSFSLISSFSSQVFELFPGFLKHFPGTHRQIYRNLQEINTFIGQSVEKHRATLDPSNPRDFIDVYLLRMEKDKSDPSSEFHHQNLILTVLSLFFAGTETTSTTLRYGFLLMLKYPHVTERVQKEIEQVIGSHRPPALDDRAKMPYTDAVIHEIQRLGDLIPFGVPHTVTKDTQFRGYVIPKNTEVFPVLSSALHDPRYFETPNTFNPGHFLDANGALKRNEGFMPFSLGKRICLGEGIARTELFLFFTTILQNFSIASPVPPEDIDLTPRQSGVGNVPPSYQIRFLAR
- Km [1]: 64 ± 8 µM
- kcat [1]: 0.02 ± 0.0033 s⁻¹
- kcat/Km [1]: 333 M⁻¹ s⁻¹
- Km [2]: 178 ± 17 µM
- kcat [2]: 0.04 ± 0.005 s⁻¹

B2: P450 2B4 wild type (Oryctolagus cuniculus) (protein)
chain: B1 chain with Q455E
- Km [3]: 25 ± 3 µM
- kcat [3]: 0.16 ± 0.0067 s⁻¹
- kcat/Km [3]: 6000 M⁻¹ s⁻¹
- Km [4]: 132 ± 6 µM
- kcat [4]: 0.188 ± 0.0033 s⁻¹
- kcat/Km [4]: 1330 M⁻¹ s⁻¹

B3: P450 2B4 H172A (Oryctolagus cuniculus; H172A) (protein)
chain: B1 chain with H153A, Q455E
- Km [5]: 26 ± 4 µM
- kcat [5]: 0.07 ± 0.005 s⁻¹
- kcat/Km [5]: 2500 M⁻¹ s⁻¹
- Km [6]: 126 ± 11 µM
- kcat [6]: 0.0867 ± 0.01 s⁻¹
- kcat/Km [6]: 667 M⁻¹ s⁻¹

B4: P450 2B4 L437A (Oryctolagus cuniculus; L437A) (protein)
chain: B1 chain with L418A, Q455E
- Km [7]: 25 ± 4 µM
- kcat [7]: 0.045 ± 0.0033 s⁻¹
- kcat/Km [7]: 2000 M⁻¹ s⁻¹
- Km [8]: 85 ± 8 µM
- kcat [8]: 0.03 ± 0.0033 s⁻¹
- kcat/Km [8]: 333 M⁻¹ s⁻¹

B5: P450 2B4 H172Q (Oryctolagus cuniculus; H172Q) (protein)
chain: B1 chain with H153Q, Q455E
- Km [9]: 48 ± 6 µM
- kcat [9]: 0.0283 ± 0.005 s⁻¹
- kcat/Km [9]: 667 M⁻¹ s⁻¹
- Km [10]: 115 ± 15 µM
- kcat [10]: 0.123 ± 0.0083 s⁻¹
- kcat/Km [10]: 1000 M⁻¹ s⁻¹

B6: P450 2B4 E474D (Oryctolagus cuniculus; E474D) (protein)
chain: B1 chain with Q455D
- Km [11]: 77 ± 10 µM
- kcat [11]: 0.0067 ± 0.0017 s⁻¹
- Km [12]: 185 ± 14 µM
- kcat [12]: 0.0633 ± 0.0033 s⁻¹
- kcat/Km [12]: 333 M⁻¹ s⁻¹
